Measured values as given in the supplement of paper PMC9170038.

System: MS2 coat protein
Assay: apparent KD of MS2 coat protein; designed switch direction (-1 OFF switch, 1 ON switch): -1; higher = weaker reporter binding
Procedure, shortened: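 Stalled E. coli RNA polymerase transcribed designed RNA switches on Illumina chips, which were then titrated with SNAP-549-labelled MS2 coat protein, doubling from 0.7 or 1.5 nM to 3 µM. Steps lasted from 0.8–1.5 h at the lowest concentration to 10–20 min at the highest. The apparent KD is each design's median over clusters of curve-fitted normalised fluorescence.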

[1] = Eterna round: R95, input ligand: microRNA oligo, concentration not stated
[2] = input ligand: microRNA oligo, concentration not stated
[3] = Eterna round: R95, input ligand: FMN 200 uM
[4] = Eterna round: R95, input ligand: none

Sequence | apparent KD of MS2 coat protein [1] [nM] | apparent KD of MS2 coat protein (input ligand: FMN 200 uM) [nM] | apparent KD of MS2 coat protein (input ligand: none) [nM] | apparent KD of MS2 coat protein [2] [nM] | apparent KD of MS2 coat protein [3] [nM] | apparent KD of MS2 coat protein [4] [nM]
AGAGUGUGAGGAUAUAUGGUAAAAGUGAAGAGAGAGGAGGAGUAGAAGGUACAUGAGGAUCACCCAUGUUUGGA [JR_Exclu4_Sub074] (puzzle: Exclusion 4) | 38.1 |  |  |  |  | 
AGAUAACAUGAGGAUCACCCAUGUGAGGAUAUUUACUCAAGAGCUUCGGCUCUCAGGUGAAGAAGGCGCAAUGA [EX1 #55] (Eterna round: R97, puzzle: Exclusion 1) |  | 44.7 | 45.7 |  |  | 
AGAUAGUCAGGAUAUUAGUGGUGGAGGGAUAAUUUUAUUUUUGAGAAGGGACAUGAGGAUCACCCAUGUAAUAU [JR_Ex4_Sub064] (Eterna round: R97, puzzle: Exclusion 4) |  | 33.3 | 43.5 |  |  | 
AGAUAGUGCAGAGGAUAUCUUAAUAGAAAGAAUAGAGAAGGCUGACAUGAGGAUCACCCAUGUGAUGUCUUGAGACUACAUGGU [Prohibition 33 - Jieux - Exclusion NG 1] (Eterna round: R96, puzzle: Exclusion NG 1) |  |  |  | 45.9 |  | 
AGAUAGUGCGGAGGAUAUCUUAAUAGAAAGAAUAGAGAAGGCUGACAUGAGGAUCACCCAUGUGAGGUCUUGAGACUACAUGGU [Prohibition 35 - Jieux - Exclusion NG 1] (Eterna round: R96, puzzle: Exclusion NG 1) |  | 66.3 | 18.2 | 12.9 |  | 
AGAUAUUCGGUAGGAUAUCAGAAAGGAAGUGUAUGAGAAGGACCGAGCCGGAAACCGGUACAUGAGGAUCACCCAUGUGGUCCA [PowerStrip EXNG 1.23] (Eterna round: R96, puzzle: Exclusion NG 1) |  | 20.4 | 16.4 | 14 |  | 
AGAUCAAUCACGAAAGUGAUUGAUCAAAUUAGUUUUUAAACAUGAGGAUCACCCAUGUCCUAGUGGGCUAGUCUUAU [Mat - Sensor v2 - var 2 - Mod - D142] (Eterna round: R96, puzzle: Sensor v2, turn-off variant 2) |  | 254 | 249 | 177 |  | 
AGAUCACAUGAGGAUCACCCAUGUGAGGAUAUGCUUAAACCGUUGAACCCGGUUUGAGGCAGAAGGUGCGAGGG [Eternabot (L2) Solution 37] (Eterna round: R97, puzzle: Exclusion 1) |  | 29.9 | 21.3 |  |  | 
AGAUCCUGAGUCAGGAUAUAGAGACGGAAGUCGGGCUAGAAGGGACAUGAGGAUCACCCAUGUGGGUUCGUGCC [Lalaarveti] (puzzle: Brourd's mod of Exclusion 4) | 16.3 |  |  |  | 33.5 | 23
AGAUCCUGAGUCAGGAUAUAGAGGCGGUAGCCUGGCUAGAAGGGACAUGAGGAUCACCCAUGUGGGUUCGAGCC [Isonus] (puzzle: Brourd's mod of Exclusion 4) | 16.7 |  |  |  |  | 
AGAUCUCAUGACGUUUGCAACAUGAGGAUCACCCAUGUGAGGAGGGUAAACAAACCAAGCUUCGUGCUCGUCUAUAA [Eternabot (Original) Solution 46] (Eterna round: R97, puzzle: Sensor, turn-off variant 1) |  | 38.9 | 52.3 |  |  | 
AGAUCUGCAGGAUAUGGUUUUCGUGACAUGAGGAUCACCCAUGUCUUAUGUCCGCAUGUUUCAGAAGGGCAGGACG [Eternabot (L1) Solution 71] (Eterna round: R97, puzzle: Exclusion 5) |  | 74.3 | 27.8 |  |  | 
AGAUGCUUAAGUCGACAUGAGGAUCACCCAUGUACAGUUAACGAGGAUAUCCGAAAUAAAUAAUAGGAGAAGGCGUGAUCAUGA [Ex NG3 #1] (Eterna round: R96, puzzle: Exclusion NG 3) |  | 82.4 | 307 | 145 |  | 
AGAUGGCGAGGAUAUACAUGAGGAUCACCCAUGUGAAUAAGAAGAGUGAGGAAGAAAAGUAGAAGGCGCUGUCA [Mat - Exclusion 3 - Mod of Salish D31] (puzzle: Exclusion 3) | 64.6 |  |  |  | 128 | 99.8
AGAUGGCGAGGAUAUACAUGAGGAUCACCCAUGUGAGAAUAGAAAGUGAGGAAGAAAAGUAGAAGGCGCUGUCA [Mat - Exclusion 3 - Mod of Salish D22] (puzzle: Exclusion 3) | 59.7 |  |  |  | 125 | 73.4
AGAUGUAGAUACCGAUCCUACAUGAGGAUCACCCAUGUAGCUAGACGUGCGCGCGGCGCUCGUCAGACUACCAGUAG [salish99_TOv1_r3_093] (Eterna round: R96, puzzle: Sensor v3, turn-off variant 1) |  | 499 | 364 | 250 |  | 
AGAUGUAGAUACCGAUCCUACAUGAGGAUCACCCAUGUAGCUAGACGUGCGCGCGGCGCUCGUCAGACUACCAGUAG [salish99_TOv1_r3_093] (puzzle: Sensor v3, turn-off variant 1) | 248 |  |  |  | 328 | 326
